Results taken from publication PMC10361993, “Amyloid modifier SERF1a interacts with polyQ-expanded huntingtin-exon 1 via helical interactions and exacerbates polyQ-induced toxicity” (Communications Biology, 2023).
Where “and” joins values, the source holds several entries; their conditions need not be identical. Equal values may be shown once. Where a SMILES comes first, the peptide text is derived from it.

B1: Human SERF1a (small EDRK-rich factor 1a), short form (natural protein, UniProt O75920-2 1-62, looked up)
chain: MARGNQRELARQKNMKKTQEISKGKRKEDSLTASQRKQRDSEIMQEKQKAANEKKSMQTREK
notes: Small EDRK-rich factor 1a, human, short form of 62 residues (the long form has 110); full-length cDNA amplified by PCR from GenBank BC021174; 15N-labelled (M9 minimal medium) for the NMR titration; also called rSERF1a; recombinant SERF1a; source: E. coli BL21(DE3), purified (Ni-Sepharose, thrombin cleavage, Mono-S); not shown: His-tag, N-terminal, cleaved
B2: NT17 peptide (N-terminal 17 amino acids of Htt) (peptide, UniProt P42858 1-17, looked up)
peptide: MATLEKLMKAFESLKSF
notes: N-terminal 17 amino acids of huntingtin; source: synthetic peptide (peptide synthesis core, Genomics Research Center, Academia Sinica)

Tests used:
SERF1a [1] = target: T1, SERF1a (Homo sapiens, UniProt O75920); experiment: Intrinsic tyrosine fluorescence titration of Aβ or α-synuclein with SERF1a; assay type: binding; conditions: tyrosine fluorescence quenching upon SERF1a titration, fitted
T1 construct: Full-length SERF1a cDNA was amplified by PCR; His-tag with thrombin site (N, cleaved yes); made in house; host or cells: E. coli BL21(DE3), pET14b
T1 sequence (O75920 1-62 isoform O75920-2): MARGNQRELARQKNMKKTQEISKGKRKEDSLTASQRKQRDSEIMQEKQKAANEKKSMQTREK

[2] = ThT assay of Aβ and α-synuclein fibrillization with and without SERF1a; assay type: physicochemical; conditions: Aβ 25 μM, α-synuclein 50 μM, 25 °C, shaking
Protocol: For SERF1a and α-synuclein aggregation assay, α-Synuclein at 50 μM in Tris buffer (10 mM Tris-HCl, pH 7.4, and 150 mM NaCl) was incubated with different SERF1a concentrations in a 384-well ELISA plate. ThT at 10 μM was added in the samples. The samples were constantly rotated at 400 rpm during the incubation. ThT fluorescence was measured at 485 nm with an excitation of 442 nm at 25 °C by a microplate reader (SpectraMax M5; Molecule Devices) with SoftMax Pro 5.4. The data from independent trials were averaged, and the standard deviations were calculated.
were incubated at 25 °C with continuous shaking at 800 rpm. ThT fluorescence at 485 nm was monitored with excitation at 442 nm. The error bars represent standard deviation.

SERF1a [3] = target: T1, SERF1a; experiment: Isothermal titration calorimetry of Htt peptides with SERF1a; assay type: binding; conditions: ITC, 250 μM SERF1a injected into 50 μM peptide, 10 mM PB pH 7.4, 26 °C
Protocol: MicroCal iTC200 (GE) was used for ITC experiments. SERF1a was in 10 mM PB, pH 7.4. For Htt-0, Htt-1, Htt-2, Htt-4, and Htt-5, 300 μM SERF1a in syringe was injected into the cell containing 30 μM Htt peptides. The volume of each injection was 2 μl. For Htt-3 and NT17, 250 μM SERF1a in syringe was injected into the cell containing 50 μM Htt peptides. The volume of each injection was 1.5 μl. The cell of the calorimeter was maintained at 26 °C. ITC analysis software MicroCal Analysis Launcher (GE Healthcare) was used for data analysis.

[4] = target: Htt-3 peptide (four prolines at a/d positions of the polyQ region); experiment: ITC; 250 μM SERF1a in syringe injected into 50 μM Htt-3 or NT17 in the cell; 10 mM PB pH 7.4, 26 °C, 1.5 μl injections
[5] = target: B2; experiment: as above; conditions: both partners purified
α-Synuclein, P37840 = experiment: other fluorescence titration; tyrosine fluorescence of Aβ or α-synuclein titrated with SERF1a at different concentrations; quenching fitted; conditions: remark: other sources report otherwise
[6] = target: the molecule itself; experiment: AUC; sedimentation velocity; NT17 and Htt-3 at 50 μM, Htt-0, Htt-1, Htt-2, Htt-4 and Htt-5 at 30 μM, in 10 mM PB pH 7.4, 42,000 rpm for 24 h at 25 °C; c(s) distribution, SEDFIT
[7] = target: B1; experiment: ITC; 250 μM SERF1a in syringe injected into 50 μM Htt-3 or NT17 in the cell; 10 mM PB pH 7.4, 26 °C, 1.5 μl injections; conditions: both partners purified

α-synuclein
Kd (SERF1a [1]): 20.8 ± 8.3 µM | effect of SERF1a on fibrillization (ThT assay) [2]: accelerated

CSCC[C@H](NC(=O)[C@H](CC(C)C)NC(=O)[C@H](CCCCN)NC(=O)[C@H](CCC(=O)O)NC(=O)[C@H](CC(C)C)NC(=O)[C@@H](NC(=O)[C@H](C)NC(=O)[C@@H](N)CCSC)[C@@H](C)O)C(=O)N[C@@H](CCCCN)C(=O)N[C@@H](C)C(=O)N[C@@H](Cc1ccccc1)C(=O)N[C@@H](CCC(=O)O)C(=O)N[C@@H](CO)C(=O)N[C@@H](CC(C)C)C(=O)N[C@@H](CCCCN)C(=O)N[C@@H](CO)C(=O)N[C@@H](Cc1ccccc1)C(=O)N1CCC[C@H]1C(=O)N[C@@H](CCC(N)=O)C(=O)N[C@@H](CCC(N)=O)C(=O)N1CCC[C@H]1C(=O)N[C@@H](CCC(N)=O)C(=O)N[C@@H](CCC(N)=O)C(=O)N[C@@H](CCC(N)=O)C(=O)N1CCC[C@H]1C(=O)N[C@@H](CCC(N)=O)C(=O)N[C@@H](CCC(N)=O)C(=O)N1CCC[C@H]1C(=O)N[C@@H](CCC(N)=O)C(=O)N[C@@H](CCC(N)=O)C(=O)N[C@@H](CCC(N)=O)C(=O)N[C@@H](Cc1ccc(O)cc1)C(=O)N[C@@H](CCCCN)C(=O)O [Htt-3] (H-MATLEKLMKAFESLKSFPQQPQQQPQQPQQQYK-OH)
Kd (SERF1a [3]): 332 nM

B1
Ka [4]: 3.01e+06 M⁻¹ | Kd [4]: 332 nM | stoichiometry N [4]: 0.5 | stoichiometry N [5]: ~0.5 | Kd (α-Synuclein, P37840): 20.8 µM

MATLEKLMKAFESLKSFQQQQQQQQQQQQQQPPP [Htt-0, wild-type Htt peptide of 33 amino acids]
stoichiometry N [6]: 2

MATLEKLMKAFESLKSFLQQLQQQLQQLQQQPPP [Htt-1, Htt peptide with four leucines in the polyQ region]
stoichiometry N [6]: 5 and 8

B2
Ka [7]: 1.38e+07 M⁻¹ | Kd [7]: 72.5 nM
